Reference: patent US20170254807

What was measured:
[1] = bead aggregation assay, fluorescence microscopy
[2] = bead aggregation assay, flow cytometry, experiment 1, before the 90 min incubation

B1: Fc-D1/D2 (mBetacam D1-D2 domain, aa 33-239, fused to human IgG1 Fc; pFUSE-Fc-D1/D2) (protein)
chain: LKVTVPSYTVHGIRGQALYLPVHYGFHTPASDIQIIWLFERSHTMPKYLLGSVNKSVVPDLEYQHKFTMMPPNASLLINPLQFTDEGNYIVKVNIQGNGTLSASQKIQVTVDDPVMKPMVQFHPASGAVEYVGNITLTCQVEGGTRLVYQWRKSGKPISINSSHSFSPQNNTLWIVPVTKEDIGNYTCLVSNPVSEMESDIIMPTIY
[1]
  aggregate size: Aggregates of >100 beads were observed

B2: Fc-D3 (mBetacam D3 domain, aa 240-335, fused to human IgG1 Fc; pFUSE-Fc-D3) (protein)
chain: YGPYGLQVNSDKGLKVGEVFTVDLGEAVLFDCSADSYPPNTYSWIQRSDNTTHVIKHGPHLEVASEKVAQKTADYVCCAYNNITGRRDETRFTVII
[2]
  P3 (aggregates) prior to incubation: P3 prior to incubation is 40.8%
